Experimental data: article PMC12152739

Columns and labels:
Format in all cases: biochemical
[1] = substrate: CC(C)(O/N=C(\C(=O)N[C@@H]1C(=O)N2C(C(=O)[O-])=C(C[n+]3ccccc3)CS[C@H]12)c1csc(N)n1)C(=O)O; assay: Steady-state hydrolysis kinetics and UV difference spectra with purified NDM-1; settings: other: substrate hydrolysis by NDM-1, 30 °C, pH 7.5
[2] = substrate: CC(C)(O/N=C(\C(=O)N[C@@H]1C(=O)N2C(C(=O)[O-])=C(C[N+]3(CCNC(=O)c4ccc(O)c(O)c4Cl)CCCC3)CS[C@H]12)c1csc(N)n1)C(=O)O; assay: as above; settings: other: substrate hydrolysis by NDM-1, 30 °C, pH 7.5
[3] = substrate: CC(C)(O/N=C(\C(=O)N[C@@H]1C(=O)N2C(C(=O)[O-])=C(C[N+]3(CCNC(=O)c4ccc(O)c(O)c4Cl)CCCC3)CS[C@H]12)c1csc(N)n1)C(=O)O; assay: Steady-state hydrolysis kinetics and UV difference spectra with purified IMP-1; settings: other: FDC hydrolysis by IMP-1, 30 °C, pH 7.5

Protein	kcat [1]	kcat/Km [1]	kcat [2]	kcat [3]
NDM-1 (Klebsiella pneumoniae) (protein) METGDQRFGDLVFRQLAPNVWQHTSYLDMPGFGAVASNGLIVRDGGRVLVVDTAWTDDQTAQILNWIKQEINLPVALAVVTHAHQDKMGGMDALHAAGIATYANALSNQLAPQEGMVAAQHSLTFAANGWVEPATAPNFGPLKVFYPGPGHTSDNITVGIDGTDIAFGGCLIKDSKAKSLGNLGDADTEHYAASARAFGAAFPKASMIVMSHSAPDSRAAITHTARMADKLR	187 ± 13 s⁻¹	4.16e+06 M⁻¹ s⁻¹	84 ± 11 s⁻¹	
IMP-1 (Serratia marcescens) (protein) TAAESLPDLKIEKLDEGVYVHTSFEEVNGWGVVPKHGLVVLVNAEAYLIDTPFTAKDTEKLVTWFVERGYKIKGSISSHFHSDSTGGIEWLNSRSIPTYASELTNELLKKDGKVQATNSFSGVNYWLVKNKIEVFYPGPGHTPDNVVVWLPERKILFGGCFIKPYGLGNLGDANIEAWPKSAKLLKSKYGKAKLVVPSHSEVGDASLLKLTLEQAVKGLNESKKPSKPSN				1.25 ± 0.23 s⁻¹
